Source: paper doi:10.1101/2022.02.09.479746 (bioRxiv, 2022)

Molecular target: the molecule itself
Test: SEC

Protein	stoichiometry N
full-length FLAG-DFCP1 (Double FYVE Domain Containing Protein 1) (natural protein, human, UniProt Q9HBF4 1-777, looked up) MSAQTSPAEKGLNPGLMCQESYACSGTDEAIFECDECCSLQCLRCEEELHRQERLRNHERIRLKPGHVPYCDLCKGLSGHLPGVRQRAIVRCQTCKINLCLECQKRTHSGGNKRRHPVTVYNVSNLQESLEAEEMDEETKRKKMTEKVVSFLLVDENEEIQVTNEEDFIRKLDCKPDQHLKVVSIFGNTGDGKSHTLNHTFFYGREVFKTSPTQESCTVGVWAAYDPVHKVAVIDTEGLLGATVNLSQRTRLLLKVLAISDLVIYRTHADRLHNDLFKFLGDASEAYLKHFTKELKATTARCGLDVPLSTLGPAVIIFHETVHTQLLGSDHPSEVPEKLIQDRFRKLGRFPEAFSSIHYKGTRTYNPPTDFSGLRRALEQLLENNTTRSPRHPGVIFKALKALSDRFSGEIPDDQMAHSSFFPDEYFTCSSLCLSCGVGCKKSMNHGKEGVPHEAKSRCRYSHQYDNRVYTCKACYERGEEVSVVPKTSASTDSPWMGLAKYAWSGYVIECPNCGVVYRSRQYWFGNQDPVDTVVRTEIVHVWPGTDGFLKDNNNAAQRLLDGMNFMAQSVSELSLGPTKAVTSWLTDQIAPAYWRPNSQILSCNKCATSFKDNDTKHHCRACGEGFCDSCSSKTRPVPERGWGPAPVRVCDNCYEARNVQLAVTEAQVDDEGGTLIARKVGEAVQNTLGAVVTAIDIPLGLVKDAARPAYWVPDHEILHCHNCRKEFSIKLSKHHCRACGQGFCDECSHDRRAVPSRGWDHPVRVCFNCNKKPGDL	2
MBP-DFCP1 112-415 (isolated GTPase domain), wild type (domain or fragment, human, UniProt Q9HBF4 112-415, looked up) NKRRHPVTVYNVSNLQESLEAEEMDEETKRKKMTEKVVSFLLVDENEEIQVTNEEDFIRKLDCKPDQHLKVVSIFGNTGDGKSHTLNHTFFYGREVFKTSPTQESCTVGVWAAYDPVHKVAVIDTEGLLGATVNLSQRTRLLLKVLAISDLVIYRTHADRLHNDLFKFLGDASEAYLKHFTKELKATTARCGLDVPLSTLGPAVIIFHETVHTQLLGSDHPSEVPEKLIQDRFRKLGRFPEAFSSIHYKGTRTYNPPTDFSGLRRALEQLLENNTTRSPRHPGVIFKALKALSDRFSGEIPDDQ	2
MBP-DFCP1 112-415 R266Q (GTPase domain with the cancer-related mutation R266Q) (domain or fragment, human, UniProt Q9HBF4 112-415, looked up) NKRRHPVTVYNVSNLQESLEAEEMDEETKRKKMTEKVVSFLLVDENEEIQVTNEEDFIRKLDCKPDQHLKVVSIFGNTGDGKSHTLNHTFFYGREVFKTSPTQESCTVGVWAAYDPVHKVAVIDTEGLLGATVNLSQRTRLLLKVLAISDLVIYQTHADRLHNDLFKFLGDASEAYLKHFTKELKATTARCGLDVPLSTLGPAVIIFHETVHTQLLGSDHPSEVPEKLIQDRFRKLGRFPEAFSSIHYKGTRTYNPPTDFSGLRRALEQLLENNTTRSPRHPGVIFKALKALSDRFSGEIPDDQ	2
